The target in test [1] is PI3Kα-RBD (Human PI3Kα residues 157–300) (human) (UniProt P42336). The experiment in a line: ITC.
The target in test [2] is PI3Kγ-RBD (residues 193–316) (human) (UniProt P48736). The experiment in a line: ITC. Background: Isothermal titration calorimetry measures the heat released or taken up as one component is titrated into another.

Among the data in paper PMC8005443 are Kd, dH and stoichiometry N values, retold here.

A word on the Kd: it is the constant that tells how readily two partners part at equilibrium. A lower Kd goes with higher affinity. What is called stoichiometry N is a count of units in the complex or per binding partner. Consider “KRAS4B^G12V (from UniProt P01116-2 1-169) (enzyme)”, for which, in test [1], the dissociation constant (Kd) amounted to 2.3 µM, the dH was -3.82 kcal/mol and the stoichiometry N was found to be 1.07. Further, in test [2], the Kd was 2.4 µM, the dH was -4.16 kcal/mol and the stoichiometry N came out at 0.81.
Regarding “KRAS4B^Q61H (from UniProt P01116-2 1-169) (enzyme)”, in test [1], the dissociation constant Kd worked out at 4 µM, the dH was -2.59 kcal/mol and the stoichiometry N came out at 1.06. Also, in test [2], the Kd was 2.6 µM, the dH is -2.97 kcal/mol and the stoichiometry N was determined as 0.91.
